The supplement of paper PMC10126150
± gives the standard deviation of the averaged measurements.

Tested on: ATP
Test: switch fluorescence ratio, 500 uM ATP over buffer (Cy3 cluster intensity, sum of 5 cycles each) (fold (ratio)); higher = stronger signal-on switching upon ATP binding; sequences stand for … in TCGTCGGCAGCGTCAGATGTGTATAAGAGACAGTTTTTTTTTTTTTTTTTTTTTTTTT…TC
Conditions: aptamer strand: ATP DNA aptamer (quencher-CACCTGGGGGAGTATTGCGGAGGAAGG + anchor), 100 nM annealed; ATP concentration: 500 uM
Method in brief: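 Exposure to 500 uM ATP lasted 15 min at 22 °C before imaging, and a selection-buffer image was taken beforehand, for Cy3-labelled switching-strand clusters on a modified Illumina MiSeq flow-cell annealed to 100 nM quencher-labelled ATP aptamer. Five buffer/ATP cycles were run with NaOH stripping and re-annealing between them. The fluorescence ratio per cluster is summed target-cycle over summed buffer-cycle Cy3 intensity, averaged per switch-domain sequence. Clusters outside 100-1000 RFU were excluded.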

Sequence | switch fluorescence ratio
TGATGCTTT | 1.01 ± 0.077
TGATGGATAG | 0.995 ± 0.047
TGATGGCAGT | 1.02 ± 0.031
TGATGGCCGA | 0.985 ± 0.019
TGATGGGCGG | 0.9957 ± 0.008
TGATGGGCGT | 0.9801 ± 0.0016
TGATGGGGTG | 0.99 ± 0.012
TGATGTGCA | 1.01 ± 0.17
TGATGTTACG | 0.9871 ± 0.0046
TGATGTTCGA | 1 ± 0.028
TGATTACTGG | 1.027 ± 0.01
TGATTAGAGT | 1.01 ± 0.016
TGATTAGATT | 1.01 ± 0.046
TGATTAGTTG | 0.993 ± 0.02
TGATTCACTG | 0.9907 ± 0.0075
TGATTCAGGT | 1 ± 0.024
TGATTCTTAG | 0.989 ± 0.023
TGATTGCCGG | 0.996 ± 0.02
TGATTGTATG | 1.01 ± 0.011
TGATTGTGCA | 0.989 ± 0.035
TGATTGTGGC | 0.9557 ± 0.0095
TGATTGTTGG | 1.01 ± 0.012
TGATTTATAG | 1.012 ± 0.009
TGATTTCAGG | 0.982 ± 0.062
TGATTTGTTG | 0.971 ± 0.011

Sequence | switch fluorescence ratio
TGATTTTCCA | 0.988 ± 0.021
TGATTTTCTG | 1.008 ± 0.002
TGATTTTGTT | 1.01 ± 0.018
TGATTTTTCT | 1 ± 0.013
TGCAAACCTA | 1.0241 ± 0.00058
TGCAAAGAAA | 1.15 ± 0.12
TGCAAAGATT | 0.99 ± 0.016
TGCAAATTGG | 0.992 ± 0.011
TGCAAGGGGC | 1.04 ± 0.04
TGCACATAGG | 1.06 ± 0.016
TGCACCAGGA | 1.13 ± 0.067
TGCAGATTTA | 1.01 ± 0.014
TGCAGCGTTC | 1.27 ± 0.053
TGCAGGAATG | 2.17 ± 1.6
TGCAGGCTGC | 0.989 ± 0.048
TGCAGGGAGG | 1.02 ± 0.0064
TGCAGGGCGA | 1.004 ± 0.0097
TGCAGGGGGG | 1.02 ± 0.039
TGCAGGGGGT | 1.09 ± 0.14
TGCAGTATGG | 0.997 ± 0.019
TGCAGTCAAG | 1.01 ± 0.016
TGCAGTGAAT | 0.999 ± 0.026
TGCATGAGCG | 1.02 ± 0.032
TGCATGGTGG | 0.995 ± 0.01
TGCATGTAGG | 1.01 ± 0.034

Sequence | switch fluorescence ratio
TGCATTAATT | 0.992 ± 0.019
TGCATTGCTA | 1.04 ± 0.015
TGCATTGGAG | 1.01 ± 0.043
TGCATTGGG | 0.975 ± 0.058
TGCATTGGGA | 1.02 ± 0.043
TGCATTTTCG | 1.03 ± 0.049
TGCATTTTTT | 0.981 ± 0.034
TGCCAGTGGG | 1.04 ± 0.068
TGCCATGTGT | 1.032 ± 0.0036
TGCCCCCGGT | 1.08 ± 0.066
TGCCCGAGCT | 1.03 ± 0.1
TGCCCTTGCG | 0.9827 ± 0.0046
TGCCGAAGGT | 1.03 ± 0.024
TGCCGGACCG | 1.02 ± 0.033
TGCCGGGTTC | 0.979 ± 0.03
TGCCGTTTGC | 0.965 ± 0.029
TGCCTAAGTA | 1.02 ± 0.018
TGCCTCGGGG | 1.042 ± 0.0049
TGCCTGGGTG | 2.74 ± 1.1
TGCCTGTCTA | 1.02 ± 0.018
TGCCTTTGTA | 0.963 ± 0.013
TGCGAAAGGA | 1.01 ± 0.016
TGCGAAATTT | 0.965 ± 0.013
TGCGACAGGG | 0.988 ± 0.013
TGCGACCGTT | 1.01 ± 0.033

Sequence | switch fluorescence ratio
TGCGAGGCTT | 1.022 ± 0.0058
TGCGAGGTTG | 1.01 ± 0.041
TGCGAGTATT | 1.038 ± 0.0023
TGCGAGTGCT | 0.976 ± 0.037
TGCGAGTTCT | 1 ± 0.014
TGCGATAAGC | 1.026 ± 0.01
TGCGCCTACC | 1.28 ± 0.058
TGCGCCTTAC | 3.37 ± 0.38
TGCGGACAA | 0.9948 ± 0.0043
TGCGGGAGTA | 1.003 ± 0.0014
TGCGGGCAAG | 0.992 ± 0.015
TGCGGGCGTT | 0.993 ± 0.013
TGCGGGGTGC | 1.02 ± 0.0028
TGCGGTCACT | 0.9964 ± 0.0056
TGCGTAAAAT | 1.008 ± 0.0028
TGCGTATTCT | 0.967 ± 0.045
TGCGTGGGGT | 1.01 ± 0.022
TGCGTGTCTT | 1.01 ± 0.018
TGCGTTATTA | 0.999 ± 0.017
TGCTAATAGG | 1.01 ± 0.02
TGCTACACGT | 1.01 ± 0.027
TGCTACGTTT | 0.991 ± 0.02
TGCTAGAGCT | 0.997 ± 0.011
TGCTATAGAG | 1.048 ± 0.0012
TGCTATGGC | 1.09 ± 0.092
